# Patent US20220088148A1 (HANMI PHARM, published 2022)
# Changes are numbered by the printed parent chain. Bridges are numbered along the chain shown (N, C = ends). Where no end group is shown, it is not given here. [ ]: non-standard residue; d: D form. The star is where a group is joined. Acetyl(2-(4-imidazolyl)) = O=C(Cc1c[nH]cn1)*; Aib = CC(C)(N)C(=O)O
# T1: human GIP receptor (human, UniProt P48546 22-466)
# T1 sequence (looked up): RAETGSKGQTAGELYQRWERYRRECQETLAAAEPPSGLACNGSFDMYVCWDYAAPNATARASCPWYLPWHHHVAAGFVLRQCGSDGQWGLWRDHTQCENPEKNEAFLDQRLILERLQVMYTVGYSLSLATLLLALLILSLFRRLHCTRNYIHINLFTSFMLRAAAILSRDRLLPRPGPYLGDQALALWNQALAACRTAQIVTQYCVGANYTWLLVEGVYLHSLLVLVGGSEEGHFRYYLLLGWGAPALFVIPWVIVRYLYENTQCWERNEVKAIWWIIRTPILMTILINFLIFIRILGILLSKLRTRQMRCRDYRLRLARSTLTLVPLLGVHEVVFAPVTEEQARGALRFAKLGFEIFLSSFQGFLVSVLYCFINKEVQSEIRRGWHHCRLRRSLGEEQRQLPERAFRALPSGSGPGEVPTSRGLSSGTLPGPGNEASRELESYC
# B1: triple agonist of SEQ ID NO: 42 (peptide)
# peptide: Y[Aib]QGTFTSDYSKYLDEKRAKEFVQWLLDHHPSSGQPPPSC
# modifications: bridge 16-20
# B2: triple agonist of SEQ ID NO: 43 (peptide)
# peptide: Y[Aib]QGTFTSDYSKYLDEKRAKEFVQWLLDHHCSSGQPPPS
# modifications: bridge 16-20
# B3: triple agonist of SEQ ID NO: 64 (peptide)
# peptide: Y[Aib]QGTFTSDYSKYLDECAAKEFVQWLLDHHPSSGQPPPS
# modifications: bridge 16-20; ends not checked
# B4: triple agonist of SEQ ID NO: 35 (peptide)
# peptide: H[Aib]QGTFTSDYSIAMDEIHQKDFVNWLLNTKC
# modifications: bridge 16-20
# B5: triple agonist of SEQ ID NO: 1 (peptide)
# peptide: H[Aib]QGTFTSDVSSYLDGQAAKEFIAWLVKGC
# B6: triple agonist of SEQ ID NO: 52 (peptide)
# peptide: H[Aib]QGTFTSDYSKYLDEKRQKEFVQWLLDTC
# modifications: bridge 16-20; ends not checked
# B7: triple agonist of SEQ ID NO: 59 (peptide)
# peptide: [Acetyl(2-(4-imidazolyl))][Aib]QGTFTSDYSICMDEKHQKDFVNWLLNTK
# modifications: bridge 16-20; ends not checked
# B8: triple agonist of SEQ ID NO: 6 (peptide)
# peptide: H[Aib]QGTFTSDVSSYLDGQAAKEFVAWLLKGC
# modifications: ends and bridges not checked
# B9: triple agonist of SEQ ID NO: 5 (peptide)
# peptide: H[Aib]QGTFTSDVSSYLLGQQQKEFIAWLVKGGGPSSGAPPPSC
# B10: triple agonist of SEQ ID NO: 66 (peptide)
# peptide: Y[Aib]QGTFTSDYSKYLDECRAKDFVQWLLDHHPSSGQPPPS
# modifications: bridge 16-20; ends not checked
# B11: triple agonist of SEQ ID NO: 34 (peptide)
# peptide: H[Aib]QGTFTSDYSKYLDEKRQKEFVNWLLAQKC
# modifications: bridge 16-20
# B12: triple agonist of SEQ ID NO: 69 (peptide)
# peptide: Y[Aib]QGTFTSDYSKCLDERAAKEFVQWLLDHHPSSGQPPPS
# modifications: bridge 16-20; ends not checked
# B13: triple agonist of SEQ ID NO: 65 (peptide)
# peptide: H[Aib]QGTFTSDYSKCLDEKRAKEFVQWLLDHHPSSGQPPPS
# modifications: bridge 16-20; ends not checked
# B14: triple agonist of SEQ ID NO: 68 (peptide)
# peptide: Y[Aib]QGTFTSDYSKCLDEKAAKEFVQWLLDHHPSSGQPPPS
# modifications: bridge 16-20; ends not checked
# B15: triple agonist of SEQ ID NO: 49 (peptide)
# peptide: {Acetyl(2-(4-imidazolyl))}-[Aib]QGTFTSDYSICMDEIHQKDFVNWLLNTK
# modifications: bridge 15-19
# B16: triple agonist of SEQ ID NO: 58 (peptide)
# peptide: H[Aib]QGTFTSDYSKYLDEKRQKEFVQWLLNTKC
# modifications: bridge 16-20; ends not checked
# B17: triple agonist of SEQ ID NO: 7 (peptide)
# peptide: H[Aib]QGTFTSDVSKYLDGQAAKEFVAWLLKGC
# modifications: ends and bridges not checked
# B18: triple agonist of SEQ ID NO: 50 (peptide)
# peptide: H[Aib]QGTFTSDYSKYLDEKRAKEFVQWLLDHHPSSGQPPPSC
# modifications: bridge 16-20; ends not checked
# B19: triple agonist of SEQ ID NO: 55 (peptide)
# peptide: H[Aib]QGTFTSDYSIAMDEIHQKDFVNWLLAQC
# modifications: bridge 16-20
# B20: triple agonist of SEQ ID NO: 57 (peptide)
# peptide: H[Aib]QGTFTSDYSIAMDEIHQKDFVNWLLNTC
# modifications: bridge 16-20; ends not checked
# B21: triple agonist of SEQ ID NO: 51 (peptide)
# peptide: H[Aib]QGTFTSDYSKYLDEKRQKEFVQWLLNTC
# modifications: bridge 16-20; ends not checked
# B22: triple agonist of SEQ ID NO: 60 (peptide)
# peptide: [Acetyl(2-(4-imidazolyl))][Aib]QGTFTSDYSIAMDEKHCKDFVNWLLNTK
# modifications: bridge 16-20; ends not checked
# B23: triple agonist of SEQ ID NO: 44 (peptide)
# peptide: HGQGTFTSDCSKQLDGQAAQEFVAWLLAGGPSSGAPPPS
# B24: triple agonist of SEQ ID NO: 48 (peptide)
# peptide: B23 peptide with Q13Y, A18R, E21D, A24N
# B25: triple agonist of SEQ ID NO: 45 (peptide)
# peptide: B23 peptide with Q13Y, L14M, E21D
# B26: triple agonist of SEQ ID NO: 46 (peptide)
# peptide: B23 peptide with Q13Y, G16E, A18H
# B27: triple agonist of SEQ ID NO: 47 (peptide)
# peptide: B23 peptide with Q13Y, A18R
# B28: triple agonist of SEQ ID NO: 54 (peptide)
# peptide: H[Aib]EGTFTSDYSIAMDEIHQKDFVDWLLAEC
# modifications: bridge 16-20; ends not checked
# B29: triple agonist of SEQ ID NO: 53 (peptide)
# peptide: H[Aib]EGTFTSDYSIAMDEIHQKDFVNWLLAQC
# modifications: bridge 16-20
# B30: triple agonist of SEQ ID NO: 61 (peptide)
# peptide: [Acetyl(2-(4-imidazolyl))][Aib]QGTFTSDYSIAMDEIACKDFVNWLLNTK
# modifications: bridge 16-20; ends not checked
# B31: triple agonist of SEQ ID NO: 4 (peptide)
# peptide: H[Aib]QGTFTSDVSSYLLGQQQKEFIAWLVKGC
# Biological target: human GLP-1 receptor (human, UniProt P43220 24-463)
# Assay: cell-based or functional assay
row,Binder,"In vitro activity (%) vs. GLP-1, cAMP EC50"
1,B1,33.9%
2,B2,12.6%
3,B3,64.6%
4,B4,7.5%
5,B5,3.2%
6,B6,44.1%
7,B7,40.3%
8,B8,17%
9,B9,42.1%
10,B10,15.8%
11,B11,19.1%
12,B12,24.3%
13,B13,95.4%
14,B14,27.9%
15,B15,29.8%
16,B16,39.1%

row,Binder,"In vitro activity (%) vs. GLP-1, cAMP EC50"
1,B17,13.7%
2,B18,67.4%
3,B19,27.1%
4,B20,11.7%
5,B21,14.4%
6,B22,106%
7,B23,1.3%
8,B24,1.5%
9,B25,6.6%
10,B26,1.4%
11,B27,2.4%
12,B28,30.6%
13,B29,161%
14,B30,59.8%
15,B31,8.5%

# Biological target: T1, human GIP receptor
# Assay: cell-based or functional assay
row,Binder,"In vitro activity (%) vs. GIP, cAMP EC50"
1,B1,7.8%
2,B2,3.7%
3,B3,92.9%
4,B4,1.3%
5,B5,< 0.1%
6,B6,0.3%
7,B7,4%
8,B8,< 0.1%
9,B9,< 0.1%
10,B10,17.2%
11,B11,0.6%
12,B12,62.8%
13,B13,11.6%
14,B14,107%
15,B15,3.3%
16,B16,0.2%

row,Binder,"In vitro activity (%) vs. GIP, cAMP EC50"
1,B17,< 0.1%
2,B18,2.7%
3,B19,2.4%
4,B20,0.3%
5,B21,0.1%
6,B22,8.2%
7,B23,< 0.1%
8,B24,< 0.1%
9,B25,< 0.1%
10,B26,< 0.1%
11,B27,< 0.1%
12,B28,0.1%
13,B29,1.3%
14,B30,2.8%
15,B31,< 0.1%

# Biological target: human GCG receptor (human, UniProt P47871 26-477)
# Assay: cell-based or functional assay
# Chain of human GCG receptor (P47871 26-477): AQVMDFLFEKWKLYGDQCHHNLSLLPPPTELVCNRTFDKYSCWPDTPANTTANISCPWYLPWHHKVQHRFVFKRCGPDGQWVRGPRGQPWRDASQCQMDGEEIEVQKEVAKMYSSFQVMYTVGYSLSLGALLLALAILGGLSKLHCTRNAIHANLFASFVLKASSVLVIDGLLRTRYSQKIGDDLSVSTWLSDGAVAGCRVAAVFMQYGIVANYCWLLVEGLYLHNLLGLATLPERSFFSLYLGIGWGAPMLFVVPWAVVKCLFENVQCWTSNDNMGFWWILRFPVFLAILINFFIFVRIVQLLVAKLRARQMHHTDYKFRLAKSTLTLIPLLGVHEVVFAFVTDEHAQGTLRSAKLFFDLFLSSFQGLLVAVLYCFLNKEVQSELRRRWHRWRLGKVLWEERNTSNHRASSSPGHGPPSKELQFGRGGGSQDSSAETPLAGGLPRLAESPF
row,Binder,"In vitro activity (%) vs. Glucagon, cAMP EC50"
1,B1,206%
2,B2,88.4%
3,B3,60.1%
4,B4,< 0.1%
5,B5,< 0.1%
6,B6,7.5%
7,B7,< 0.1%
8,B8,< 0.1%
9,B9,< 0.1%
10,B10,172%
11,B11,0.92%
12,B12,9.6%
13,B13,25.2%
14,B14,8.8%
15,B15,< 0.1%
16,B16,2.6%

row,Binder,"In vitro activity (%) vs. Glucagon, cAMP EC50"
1,B17,< 0.1%
2,B18,50.5%
3,B19,0.7%
4,B20,< 0.1%
5,B21,2%
6,B22,< 0.1%
7,B23,< 0.1%
8,B24,< 0.1%
9,B25,< 0.1%
10,B26,< 0.1%
11,B27,< 0.1%
12,B28,1.4%
13,B29,8.4%
14,B30,< 0.1%
15,B31,< 0.1%
